The text below walks through data of US20100292442A1.

Assay [1] has as its target huIL-17RA-FLAG-polyHis (human) (UniProt Q96F46). As to the kind of experiment: Luminex binning; bead huIgG control (f15) + IL-17RA; self pair (boxed) [D00007 Fig. 8B].
The target is the same in assay [2]. As to the kind of experiment: Luminex binning; bead mAb J holds IL-17RA.

With huIgG (antibody), the results for the normalized MFI in assay [1] and in assay [2] were 65 and 42, respectively.
